The text below walks through data of US20220089758A1.

In this assay the target is CD40 protein displayed on cell surface (UniProt P25942). Description: cell-based or functional assay.
CD40 protein displayed on cell surface, sequence (P25942 21-277 limits assumed): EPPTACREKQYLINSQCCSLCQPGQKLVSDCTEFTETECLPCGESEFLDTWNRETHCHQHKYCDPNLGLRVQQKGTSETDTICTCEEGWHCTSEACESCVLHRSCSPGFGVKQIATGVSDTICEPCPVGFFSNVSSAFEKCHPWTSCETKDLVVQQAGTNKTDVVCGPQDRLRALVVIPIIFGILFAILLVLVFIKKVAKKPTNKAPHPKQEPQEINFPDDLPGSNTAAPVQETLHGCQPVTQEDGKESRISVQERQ

For CP-870893 (antibody), the EC50 in activating MoDC assessed by CD86 expression turned out to be 4.2 nM and the EC50 in activating monocyte derived dendritic cell (MoDC) assessed by CD80 expression came out at 5 nM.
